The values below come from the nanobody polyreactivity screen of Harvey et al. (2022).

The data set in a line: yeast display, Sf9 membrane polyspecificity reagent, FACS + sequencing; frameworks hold sequencing errors. In short, it runs like this: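 Genes from sorted yeast were amplified by colony PCR, read by MiSeq 2 × 250 sequencing and filtered on CDR length. These cells carried a synthetic nanobody library in Saccharomyces cerevisiae BJ5465 and were sorted by FACS into low and high (top ~1%) gates on anti-HA and streptavidin fluorescence. Polyreactivity is labelled according to the gate of origin.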
Regarding “QVQLVESGGGLVQAGGSLRLICAASGLTLYPYAMGWYRQAPGKERELVAAISGAGTRTYYADSVKGRFTISRDNAKNTVYLQMNSLKPEDTAVYYCAAVGFRPYDYWGQGTQLTVSS”, the “polyreactivity (PSR sort gate)” value is “high polyreactivity”.

As for “QVQLVESGGGLVQAGGSLRLICAASGNIFHRYAMGWYRQAPGKERELVAAINGGGGSTYYADSVKGRFTISRDNAKNTVYLQMNSLKPEDTAVYSCAAVVQNGVHIYDYWGQGTQVTVSS”, the “polyreactivity (PSR sort gate)” value is on record as “high polyreactivity”. “QVQLVESGGGLVQAGGSLRLICAASGNIFSYNAMGWYRQAPGKERELVAAISRRGGSTFYADSVKGRFTISRDKAKNTVYLQMNSLKPEDTAVYYCAASRNRYSYGYWGQGTQVTVSS”: the “polyreactivity (PSR sort gate)” value is “high polyreactivity”. In the case of “QVQLVESGGGLVQAGGSLRLICAASGNIFVYYALGWYRQAPGKERELVAAITSDVSTYYADSVKGRFTISRDNAKNTVYLQLNSLKPEVTAVYYCATTGYGSYVIYWGQGTQVTVSS”, the “polyreactivity (PSR sort gate)” value is given as “low polyreactivity”. The same measure for “QVQLVESGGGLVQAGGSLRLICAASGRIFAHYARGWYRQAPGKERELVAAISWRGGRTYYADSVKGRFTISRDNAKNTVYLQMNSLKPEDTAVYYCNAVGYSQGYDYWGQGTQVTVSS”: “high polyreactivity”; for “QVQLVESGGGLVQAGGSLRLICAASGRIFDFYAMGWYRQAPGKDRELVAAITTGDSTYYADSVKGRFTISRDNAKNTVYLQMNSLKPEDTAVYDCAAVGHGGWDGDDYWGQGTQVTVSS”: “low polyreactivity”. Consider “QVQLVESGGGLVQAGGSLRLICAASGRIFGSYVMGWYRQAPGKERELVAAISFSGDTTYYADSVKGRFTISRDNAKNTVYLQMNSLKPDDTAVYYCAAEFPQGYYAFKYDYWGQGTQVTVSS”, for which the “polyreactivity (PSR sort gate)” value is reported as “high polyreactivity”. On to “QVQLVESGGGLVQAGGSLRLICAASGRIFKWYVMGWYRQAPGKERELVAAISRSGDSTNYADSVKGRFTISRDNAKNTVYLQMNSLKPEDTAVYYCAVGYRYLKWVDYWGQGTQVTVSS”, for which the “polyreactivity (PSR sort gate)” value is “high polyreactivity”. For “QVQLVESGGGLVQAGGSLRLICAASGRIFLGYAMGWYRQAPGKERELVARITLIGGGTNYADSVKGRFTISRDNAKNTVYLQMNSLKPVDTAVYYCAAKSPLRPWWVGAVSGNYWGQGTQVTVSS”, the “polyreactivity (PSR sort gate)” value is recorded as “low polyreactivity”.

“QVQLVESGGGLVQAGGSLRLICAASGRIFLWNAMGWYRQAPGKEREFVATISWNDAISYYADSVKGRFTISRDNAKNSVYLQMNSLKPEDTAVYYCNVDPKIVLSFGYDYWGQGTQVTVSS”: the “polyreactivity (PSR sort gate)” value is “low polyreactivity”. Take “QVQLVESGGGLVQAGGSLRLICAASGRIFPSYTMGWYRQAPGKERELVAGITKSGSSTYYADSVKGRFTISRDNAKNTVYLQMNSLKPEDTAVYYCAAVYGNPSYRYGYWGQGTQVTVSS”: the “polyreactivity (PSR sort gate)” value is “high polyreactivity”.

As for “QVQLVESGGGLVQAGGSLRLICAASGRIFRGNAMGWYRQAPGKERELVATISSDGSTNYADSVKGRFTISRDNAKNSVYLQMNSLKPEDTAVYYCAKGFYTITPHGMDYWGQGTQVTVSS”, the “polyreactivity (PSR sort gate)” value is reported as “low polyreactivity”. In the case of “QVQLVESGGGLVQAGGSLRLICAASGRIFRQNAMGWYRQEPGKERELVASISSGGNTYYADSVKGRFTISRDNAKNTVYLEMNSLKPEDTAVYYCAAAKQRYYRWWTTPGYDYWGQGTQVTVSS” it was “low polyreactivity”; in that of “QVQLVESGGGLVQAGGSLRLICAASGRIFWGNAMGWYRQAPGKERELVAAINSIGGTTYYADSVKGRFTISRDNAKNTVYLQMNSLKPEDTAVYYCAAQTFVYRKELLSRYEYWGQGTQVTVSS”, “high polyreactivity”; in that of “QVQLVESGGGLVQAGGSLRLICAASGRIFWYYAMGWYRQAPGKERELVASITSGGRTKYADSVKGRFTISRDNAKNTVYLQMNSLKPEDTAVYYCAARLLIDYHADWWVAYDYWGQGTQVTVSS”, “low polyreactivity”. As for “QVQLVESGGGLVQAGGSLRLICAASGRIFYVYAMGWYRQAPGKERELVAAITSGGSTYYADSVKGRFTISRDNAKNTVYLQMNSLKPEDTAVYYCAAYNRGRFRPYRFEYWGQGTQVTVSS”, the “polyreactivity (PSR sort gate)” value is listed as “high polyreactivity”. In the case of “QVQLVESGGGLVQAGGSLRLICAASGRIIRYYAMGWYRQAPGKERELVAITSSGGRTYYADSVKGRFSISRDNAKNTVYLQMNSLKPEDTAVYYCAVDSHCPGRGERFIRLDYWGQGTQVTVSS” it was “low polyreactivity”. Regarding “QVQLVESGGGLVQAGGSLRLICAASGRILKYNAMGWYRQAPGKERELVAAISYRGGSTYYADSVKGRFTISRDTAKYTVYLLMNSLKPEDTAVYYCNAGGGILNGPLFDYWGQGTQVTVSS”, the “polyreactivity (PSR sort gate)” value is “low polyreactivity”. In the case of “QVQLVESGGGLVQAGGSLRLICAASGRILRYYAMGWYRQAPGKERELVASISRGGSTYYADSVKGRFTISRDNAKNTFYLQMNSLKPEDTAVYYCAKSVTGWRGLWYTPRNYYWGQGTQVTVSS”, the “polyreactivity (PSR sort gate)” value is on record as “high polyreactivity”.

Turning to “QVQLVESGGGLVQAGGSLRLICAASGRILWYYAMGWYRQAPGKERELVAAITSSGRTKYADSVKGRFTISRDNAKNTVYLQMNSLKPEDSAVYYCAARPSQWNYDYRRVYYWGQGTQVTVSS”, the “polyreactivity (PSR sort gate)” value was “high polyreactivity”. On to “QVQLVESGGGLVQAGGSLRLICAASGRNFSGNAMGWYTQAPRKERELVAAISTGGSTNYADSVKGRFTISRDNAKNTVYLHMNSLKQEDTAVYYCAADEWRFPSYAYYYWGQGTQVNVSS”, for which the “polyreactivity (PSR sort gate)” value is recorded as “low polyreactivity”. For “QVQLVESGGGLVQAGGSLRLICAASGRTFFYYAMGWYRQAPGKEREFVAAISWSAGSTYYADSVKGRFTISRDNAKITVSLQMNSLKPKDTGVYYCAAARPSGGGFDYWGQGTQVTVSS”, the “polyreactivity (PSR sort gate)” value is “high polyreactivity”.

As for “QVQLVESGGGLVQAGGSLRLICAASGRTFGGYAMASYRQAPGKERELVAAITYSGSSTYYADSVKGRFTISRDNAKNTVYLQMNSLKPEDTAVYYCAARGRQTWYNYWGQGTQVTVSS”, the “polyreactivity (PSR sort gate)” value is given as “high polyreactivity”.

Regarding “QVQLVESGGGLVQAGGSLRLICAASGRTFNGYAMGWYRQAPGKERELVAAINASGGRTYYADSVKGRFTISRDNAKNTVYLQMNSLKPEDTAVYYCNARRYHWSVYYYDYWGQGTQVTVSS”, the “polyreactivity (PSR sort gate)” value is “high polyreactivity”.

With “QVQLVESGGGLVQAGGSLRLICAASGRTFQYYAMGWYRQARGKERELVAAISWSGGSTYYADSVKGRFTISRDNAKNTVYLQMNSLKAEDNAVYYFAASFRGQIVGYWGQGTQVTVSS”, the “polyreactivity (PSR sort gate)” value was “high polyreactivity”. In the case of “QVQLVESGGGLVQAGGSLRLICAASGRTFRFYAKGWYRQAPGKERELVAAITSGGSTTYAYSVKGRFTISRDNAKNTVYLQMNSLKPEDTAVYYCNADRARAYDYWGQGTQVTVSS”, the “polyreactivity (PSR sort gate)” value is on record as “high polyreactivity”. Take “QVQLVESGGGLVQAGGSLRLICAASGRTFRFYTMGWYRQAPGKERELVAGIRQRGGTTYYADSVKGRFTISRDNAKNTVYLQMNSLKPEDTAVYYCAADVYYPFYSPGFDYWGQGTQVTVSS”: the “polyreactivity (PSR sort gate)” value was “high polyreactivity”.

As for “QVQLVESGGGLVQAGGSLRLICAASGRTFYLYAMGWYRQAPGKERELVASITKSGGSTYYADSVKGRFTISRDNAKNTVYLQMNSLKPEDTAVYYCATDGRWRLAGAFTGKRRTYDYWGQGTQVTVSS”, the “polyreactivity (PSR sort gate)” value was “low polyreactivity”. On to “QVQLVESGGGLVQAGGSLRLICAASGSIFADYAMGWYRQAPGKERELVAAITGGTSTYYADSVKGRFTISRDNAKNTVYLQMNSLKPEDTAVYYCAAYYYWEFSYYEYDYWGQGSQVTVSS”, for which the “polyreactivity (PSR sort gate)” value is recorded as “low polyreactivity”. The same measure for “QVQLVESGGGLVQAGGSLRLICAASGSIFAYNAMGWYRQAPGKERELVAAITDSAGSTYYADSVKGRFTISRDNAKNTVYLQMYSLKPEDTAVYYGAKYTTRGVYRYWPKDMDYWGQGTQVTVSS”: “low polyreactivity”.
